Experimental findings from article doi:10.64898/2025.12.12.693935 are described below.

This experiment has as its target CD82-StrepII3 (human) (UniProt P27701). Kind of experiment: SEC.

B1: CADM1-His6 (natural protein)
chain: QNLFTKDVTVIEGEVATISCQVNKSDDSVIQLLNPNRQTIYFRDFRPLKDSRFQLLNFSSSELKVSLTNVSISDEGRYFCQLYTDPPQESYTTITVLVPPRNLMIDIQKDTAVEGEEIEVNCTAMASKPATTIRWFKGNTELKGKSEVEEWSDMYTVTSQLMLKVHKEDDGVPVICQVEHPAVTGNLQTQRYLEVQYKPQVHIQMTYPLQGLTREGDALELTCEAIGKPQPVMVTWVRVDDEMPQHAVLSGPNLFINNLNKTDNGTYRCEASNIVGKAHSDYMLYVYDPPTTIPPPTTTTTTTTTTTTTILTIITDSRAGEEGSIRAVDHAVIGGVVAVVVFAMLCLLIILGRYFARHKGTYFTHEAKGADDAADADTAIINAEGGQNNSEEKKEYFI
The molecule B1 came in with a stoichiometry N of 1.
